Experimental data taken from paper PMC5035230 (Biochimica et biophysica acta, 2016).
Positions count from the first letter of the chain named. In names and notes the source's numbering stands.

B1: P453L-hE3 (pathogenic variant of human dihydrolipoamide dehydrogenase) (enzyme, UniProt P09622 36-509, looked up)
chain: ADQPIDADVTVIGSGPGGYVAAIKAAQLGFKTVCIEKNETLGGTCLNVGCIPSKALLNNSHYYHMAHGKDFASRGIEMSEVRLNLDKMMEQKSTAVKALTGGIAHLFKQNKVVHVNGYGKITGKNQVTATKADGGTQVIDTKNILIATGSEVTPFPGITIDEDTIVSSTGALSLKKVPEKMVVIGAGVIGVELGSVWQRLGADVTAVEFLGHVGGVGIDMEISKNFQRILQKQGFKFKLNTKVTGATKKSDGKIDVSIEAASGGKAEVITCDVLLVCIGRRPFTKNLGLEELGIELDPRGRIPVNTRFQTKIPNIYAIGDVVAGPMLAHKAEDEGIICVEGMAGGAVHIDYNCVPSVIYTHPEVAWVGKSEEQLKEEGIEYKVGKFPFAANSRAKTNADTDGMVKILGQKSTDRVLGAHILGPGAGEMVNEAALALEYGASCEDIARVCHAHLTLSEAFREANLAASFGKSINF
B2: K37E-hE3 (pathogenic variant of human dihydrolipoamide dehydrogenase) (enzyme, UniProt P09622 36-509, looked up)
chain: B1 chain with K37E, L453P
B3: R460G-hE3 (pathogenic variant of human dihydrolipoamide dehydrogenase) (enzyme, UniProt P09622 36-509, looked up)
chain: B1 chain with L453P, R460G
B4: E340K-hE3 (pathogenic variant of human dihydrolipoamide dehydrogenase) (enzyme, UniProt P09622 36-509, looked up)
chain: B1 chain with E340K, L453P
B5: I445M-hE3 (pathogenic variant of human dihydrolipoamide dehydrogenase) (enzyme, UniProt P09622 36-509, looked up)
chain: B1 chain with I445M, L453P
B6: G194C-hE3 (pathogenic variant of human dihydrolipoamide dehydrogenase) (enzyme, UniProt P09622 36-509, looked up)
chain: B1 chain with G194C, L453P
B7: D444V-hE3 (pathogenic variant of human dihydrolipoamide dehydrogenase) (enzyme, UniProt P09622 36-509, looked up)
chain: B1 chain with D444V, L453P
B8: I318T-hE3 (pathogenic variant of human dihydrolipoamide dehydrogenase) (enzyme, UniProt P09622 36-509, looked up)
chain: B1 chain with I318T, L453P
B9: I358T-hE3 (pathogenic variant of human dihydrolipoamide dehydrogenase) (enzyme, UniProt P09622 36-509, looked up)
chain: B1 chain with I358T, L453P
B10: R447G-hE3 (pathogenic variant of human dihydrolipoamide dehydrogenase) (enzyme, UniProt P09622 36-509, looked up)
chain: B1 chain with R447G, L453P

Biological target: the molecule itself
Assay: HDX-MS

Protein | binding result
B1 | binds
B2 | binds
B3 | binds
B4 | binds
B5 | binds
B6 | binds
B7 | binds
B8 | binds
B9 | binds
B10 | binds
